B1: GFP-Atg11 (wild type) [S. cerevisiae] / Atg9-PA [S. cerevisiae] (parent complex)
chain 1: MADADEYSTAPTQQEITPLQTTATIINAISGECITTNVDFFVSLDKFKQFIARKWKIPPDQLLILLPYGNKLKPSMFKELLINRSFTLNDFYVYDRRLFSLVSKPTPTNLLTSKDSNPMNSPNSNDLTETLEYLIKNSHISQYQGSDTIMIKPMPSPLEDADVDLSRLNYHSVTSLLTTNLGWLSALEIDVHYFKSLIPDIIAHIKRIFDGLTVCSQYLKLYCFDVESLYNSNVQFLNQLVDNGMTSKWEKCFNDTLSKLTALEGDSLQKFINIESLLENEKSVKILNHSINGKLNKIKREIDENASFRDIITVNIDRLRQMFTPNESKFELEDQMAESFEVLVSEMRTRSRNVLDKEEEEFNSQEFLKSMNVMLEKDKKESVKTLFTISQALYSQIGELIDLKKSLQKHAVAILGNIAFTQMEILGIKRLLLNECNKDLELYKKYEVEFAQVEDLPLIYGLYLIEKYRRLSWFQQILSFISNFNQDLELFKQNELRTRNKWVKNFGSIATVFCEDLLSSSDFKRLNEYHSHTSPPNEDEEDENENSIANYRQDLVKVSQAIDNYMTQIKETDVSEPIIDLLSKTLFETKRFHIIYSNFKNNNNNSSNGNSISPEGSIALKSDDVVKGYKTRIKKLESLLHEFQYSDIGHWPQGVLNTHLKPFRGSATSINKKKFLGASVLLEPANISEVNIDSVSQANNHQIQELESNVDDLLHQLQLLKEENNRKSMQISEMGKKISDLEVEKTAYRETLTNLNQELARLTNEEQSHRTEIFTLNASFKKQLNDIISQDNEKIEKLTGDYDDVSKSRERLQMDLDESNKKHEQEVNLLKADIERLGKQIVTSEKSYAETNSSSMEKGEKFETIPLAEDPGRENQISAYTQTLQDRIFDIISTNIFILENIGLLLTFDNNNNIQIRRVKGLKKGTAQSNILDESTQMLDAHDNSLIKSPVFQKLKDEYELIKSVANGSEKDTQQSIFLGNITQLYDNKLYEVAVIRRFKDIETLAKKLTKENKIKRTLLERFQREKVTLRNFQIGDLALFLPTRENVNSVGSMSSSTSSLSSSFSSVDLSTPPPLDAMSIQSSPSVIHSNVINQASISGRDKNKLMRPWAAFTAFEESTRYFLKDEKGLTKGKEWFVGRIVTLEHFVADSPSNNPFRLPKGSVWFQVTAVVVSYQGV
chain 2: MERDEYQLPNSHGKNTFLSRIFGLQSDEVNPSLNSQEMSNFPLPDIERGSSLLHSTNDSREDVDENDLRVPESDQGTSTEEEDEVDEEQVQAYAPQISDGLDGDHQLNSVTSKENVLETEKSNLERLVEGSTDDSVPKVGQLSSEEEEDNEFINNDGFDDDTPLFQKSKIHEFSSKKSNTIEDGKRPLFFRHILQNNRPQRDTQKLFTSSNAIHHDKDKSANNGPRNINGNQKHGTKYFGSATQPRFTGSPLNNTNRFTKLFPLRKPNLLSNISVLNNTPEDRINTLSVKERALWKWANVENLDIFLQDVYNYYLGNGFYCIILEKILNICTLLFVVFVSTYMGHCVDYSKLPTSHRVSDIIIDKCYSNSITGFTKFFLWMFYFFVILKIVQLYFDVQKLSELQNFYKYLLNISDDELQTLPWQNVIQQLMYLKDQNAMTANVVEVKAKNRIDAHDVANRIMRRENYLIALYNSDILNLSLPIPLFRTNVLTKTLEWNINLCVMGFVFNESGFIKQSILKPSQREFTREELQKRFMLAGFLNIILAPFLVTYFVLLYFFRYFNEYKTSPGSIGARQYTPIAEWKFREYNELYHIFKKRISLSTTLANKYVDQFPKEKTNLFLKFVSFICGSFVAILAFLTVFDPENFLNFEITSDRSVIFYITILGAIWSVSRNTITQEYHVFDPEETLKELYEYTHYLPKEWEGRYHKEEIKLEFCKLYNLRIVILLRELTSLMITPFVLWFSLPSSAGRIVDFFRENSEYVDGLGYVCKYAMFNMKNIDGEDTHSMDEDSLTKKIAVNGSHTLNSKRRSKFTAEDHSDKDLANNKMLQSYVYFMDDYSNSENLTGKYQLPAKKGYPNNEGDSFLNNKYSWRKQFQPGQKPELFRIGKHALGPGHNISPAIYSTRNPGKNWDNNNNGDDIKNGTNNATAKNDDNNGNNDHEYVLTESFLDSGAFPNHDVIDHNKMLNSNYNGNGILNKGGVLGLVKEYYKKSDVGR
B2: GFP-Atg11 (wild type) [S. cerevisiae] / PA-Atg19 [S. cerevisiae] (parent complex)
chain 1: B1 chain 1
chain 2: MNNSKTNQQMNTSMGYPLTVYDECNKFQLIVPTLDANIMLWCIGQLSLLNDSNGCKHLFWQPNDKSNVRILLNNYDYGHLFKYLQCQRKCSVYIGEGTLKKYNLTISTSFDNFLDLTPSEEKESLCREDAHEDPVSPKAGSEEEISPNSTSNVVVSRECLDNFMKQLLKLEESLNKLELEQKVTNKEPNHRISGTIDIPEDRSELVNFFTELKTVKQLEDVFQRYHDYERLSQECDSKTEIASDHSKKETKIEVEPPNERSLQITMNQRDNSLYFQLFNNTNSVLAGNCKLKFTDAGDKPTTQIIDMGPHEIGIKEYKEYRYFPYALDLEAGSTIEIENQYGEVIFLGKYGSSPMINLRPPSRLSAESLQASQEPFYSFQIDTLPELDDSSIISTSISLSYDGDDNEKALTWEEL
B3: GFP-Atg11 (wild type) [S. cerevisiae] / Atg1-PA [S. cerevisiae] (parent complex)
chain 1: B1 chain 1
chain 2: MGDIKNKDHTTSVNHNLMASAGNYTAEKEIGKGSFATVYRGHLTSDKSQHVAIKEVSRAKLKNKKLLENLEIEIAILKKIKHPHIVGLIDCERTSTDFYLIMEYCALGDLTFLLKRRKELMENHPLLRTVFEKYPPPSENHNGLHRAFVLSYLQQLASALKFLRSKNLVHRDIKPQNLLLSTPLIGYHDSKSFHELGFVGIYNLPILKIADFGFARFLPNTSLAETLCGSPLYMAPEILNYQKYNAKADLWSVGTVVFEMCCGTPPFRASNHLELFKKIKRANDVITFPSYCNIEPELKELICSLLTFDPAQRIGFEEFFANKVVNEDLSSYELEDDLPELESKSKGIVESNMFVSEYLSKQPKSPNSNLAGHQSMADNPAELSDALKNSNILTAPAVKTDHTQAVDKKASNNKYHNSLVSDRSFEREYVVVEKKSVEVNSLADEVAQAGFNPNPIKHPTSTQNQNVLLNEQFSPNNQQYFQNQGENPRLLRATSSSSGGSDGSRRPSLVDRRLSISSLNPSNALSRALGIASTRLFGGANQQQQQQQITSSPPYSQTLLNSQLFHELTENIILRIDHLQHPETLKLDNTNIVSILESLAAKAFVVYSYAEVKFSQIVPLSTTLKGMANFENRRSMDSNAIAEEQDSDDAEEEDETLKKYKEDCLSTKTFGKGRTLSATSQLSATFNKLPRSEMILLCNEAIVLYMKALSILSKSMQVTSNWWYESQEKSCSLRVNVLVQWLREKFNECLEKADFLRLKINDLRFKHASEVAENQTLEEKGSSEEPVYLEKLLYDRALEISKMAAHMELKGENLYNCELAYATSLWMLETSLDDDDFTNAYGDYPFKTNIHLKSNDVEDKEKYHSVLDENDRIIIRKYIDSIANRLKILRQKMNHQN

Variants of: B1
Test: CoIP (quantified western blot); proteins overexpressed with a CUP1 promoter in an atg11∆ strain; ≥ 3 independent replicates; read off a plot

Row | Variant | ratio to parent
1 | chain 1 Y565E | ~-0.05

Variants of: B2
Test: CoIP (quantified western blot); proteins overexpressed with a CUP1 promoter in an atg11∆ strain; five independent replicates; read off a plot

Row | Variant | ratio to parent
2 | chain 1 Y565E | ~0.88

Variants of: B3
Test: CoIP (quantified western blot); endogenously driven Atg1-PA; overexpressed GFP-Atg11; four independent replicates; read off a plot

Row | Variant | ratio to parent
3 | chain 1 Y565E | ~0.13
